Assays:
[1] = target: Cell membrane human LILRB2 on human primary monocytes from healthy donors (human, UniProt Q8N423 22-597); assay: cell-based or functional assay
[2] = target: T1, Human LILRB2 stably expressed on EL4 cells (EL4/LILRB2) (human, UniProt Q8N423 22-597); assay: competitive FACS on EL4/LILRB2 cells, blockade of HLA-A2 binding
T1 construct: also called EL4-LILRB2 cells; cell membrane human LILRB2
Procedure: The blocking activities were determined by quantitating the blockade of the ligands binding to EL4/LILRB2 cells.

[3] = target: T1, Human LILRB2 stably expressed on EL4 …; assay: FACS on EL4/LILRB2 cells

Sequence of Cell membrane human LILRB2 on human primary monocytes from healthy donors (Q8N423 22-597): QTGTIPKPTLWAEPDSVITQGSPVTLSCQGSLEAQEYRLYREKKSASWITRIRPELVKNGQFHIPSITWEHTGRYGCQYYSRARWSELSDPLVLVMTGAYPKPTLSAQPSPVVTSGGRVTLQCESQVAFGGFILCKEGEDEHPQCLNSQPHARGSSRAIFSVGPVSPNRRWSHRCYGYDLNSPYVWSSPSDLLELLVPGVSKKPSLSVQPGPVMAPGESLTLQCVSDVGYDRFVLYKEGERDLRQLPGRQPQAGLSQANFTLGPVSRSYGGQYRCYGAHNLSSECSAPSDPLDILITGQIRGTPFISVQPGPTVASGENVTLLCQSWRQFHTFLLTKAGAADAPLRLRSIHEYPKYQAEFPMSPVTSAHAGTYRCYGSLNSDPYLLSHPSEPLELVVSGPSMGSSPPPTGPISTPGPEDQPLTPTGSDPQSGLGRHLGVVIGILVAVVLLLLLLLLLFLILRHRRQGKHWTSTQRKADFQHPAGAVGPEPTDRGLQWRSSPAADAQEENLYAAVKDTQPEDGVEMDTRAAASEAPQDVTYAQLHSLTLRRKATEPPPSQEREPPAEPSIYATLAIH
T1 sequence (Q8N423 22-597 limits assumed): as the sequence (Q8N423 22-597) above

B1: 043c (antibody, V domains shown)
VH: QVQLQQSGAELAKPGASVKLSCKASGYTFTSYWMYWVKQRPGQGLEWIGHINPSSGYTKYNQKFKDKATLTADKSSSTAYMQLSSLTYEDSAVYYCARDPNWDNYWGQGTTLTVSS
VL: DIVMTQSHKFMSTSVGDRVSITCKASQDVSIAVAWYQQKPGQSPKLLIYSASYRYTGVPDRFTGSGSGTDFTFTISSVQAEDLAVYYCQQHYSTPYTFGGGTKLEIK
notes: Human IgG4 chimeric antibody with S228P mutation at the Fc region; also called chimeric antibody 043c; parental antibody 043c
For B1, the “Relative cytokine level, CCL2/JE/MCP-1 (DC differentiation assay, Soluble antibody, Luminex)” value [1] was 2.36 fold of hIgG4 iso, the “Relative cytokine level, CCL3/MIP-1 alpha (DC differentiation assay, Pre-coat antibody, Luminex)” value [1] was > 5 fold of hIgG4 iso and the “Relative cytokine level, CCL3/MIP-1 alpha (DC differentiation assay, Soluble antibody, Luminex)” value [1] was 5.79 fold of hIgG4 iso. The “Relative cytokine level, CCL20/MIP-3 alpha (DC differentiation assay, Pre-coat antibody, Luminex)” value [1] was 1.75 fold of hIgG4 iso, the “Relative cytokine level, CCL20/MIP-3 alpha (DC differentiation assay, Soluble antibody, Luminex)” value [1] was 1.88 fold of hIgG4 iso and the “Relative cytokine level, CCL22/MDC (DC differentiation assay, Pre-coat antibody, Luminex)” value [1] was 2.61 fold of hIgG4 iso. For the same binder, the “Relative cytokine level, CCL22/MDC (DC differentiation assay, Soluble antibody, Luminex)” value [1] was 2.03 fold of hIgG4 iso, the “Relative cytokine level, CCL23/MPIF-1 (DC differentiation assay, Pre-coat antibody, Luminex)” value [1] was 0.48 fold of hIgG4 iso and the “Relative cytokine level, CCL23/MPIF-1 (DC differentiation assay, Soluble antibody, Luminex)” value [1] was 0.73 fold of hIgG4 iso. The “Relative cytokine level, IFN-beta (DC differentiation assay, Pre-coat antibody, Luminex)” value [1] was 3.39 fold of hIgG4 iso, the “Relative cytokine level, IFN-beta (DC differentiation assay, Soluble antibody, Luminex)” value [1] was 7.24 fold of hIgG4 iso and the “Relative cytokine level, IL6 (DC differentiation assay, Soluble antibody, Luminex)” value [1] was 1.93 fold of hIgG4 iso. The “Relative cytokine level, IL-1 alpha/IL-1F1 (DC differentiation assay, Pre-coat antibody, Luminex)” value [1] was 1.71 fold of hIgG4 iso, the “Relative cytokine level, IL-1 alpha/IL-1F1 (DC differentiation assay, Soluble antibody, Luminex)” value [1] was 1.71 fold of hIgG4 iso and the “Relative cytokine level, IL-6 (DC differentiation assay, Pre-coat antibody, Luminex)” value [1] was 1.61 fold of hIgG4 iso. The “Relative cytokine level, IL-8/CXCL8 (DC differentiation assay, Soluble antibody, Luminex)” value [1] was 1.65 fold of hIgG4 iso, the “Relative cytokine level, IL-10 (DC differentiation assay, Pre-coat antibody, Luminex)” value [1] was 2.16 fold of hIgG4 iso and the “Relative cytokine level, IL-10 (DC differentiation assay, Soluble antibody, Luminex)” value [1] was 1.69 fold of hIgG4 iso. For the same binder, the “Relative cytokine level, TNFα (DC differentiation assay, Pre-coat antibody, Luminex)” value [1] was 5.38 fold of hIgG4 iso, the “Relative cytokine level, TNFα (DC differentiation assay, Soluble antibody, Luminex)” value [1] was 4.71 fold of hIgG4 iso and the “Relative cytokine level, VEGF (DC differentiation assay, Pre-coat antibody, Luminex)” value [1] was 1.67 fold of hIgG4 iso. The “Relative cytokine level, VEGF (DC differentiation assay, Soluble antibody, Luminex)” value [1] was 1.43 fold of hIgG4 iso, the IC50 [2] was 0.48 nM and the EC50 [3] was 0.45 nM. The “TOP MFI” value [3] was 45300 MFI.

— patent US20260008847A1 (ELPISCIENCE SUZHOU BIOPHARMA, published 2026)
